Results taken from PMC2648068 (Journal of immunology (Baltimore, Md. : 1950), 2009).

Tests used:
Assay in all cases: ELISA
recombinant mouse TLR1 = molecular target: T1, recombinant mouse TLR1 (mouse, UniProt Q9EPQ1 26-582)
T1 sequence (looked up): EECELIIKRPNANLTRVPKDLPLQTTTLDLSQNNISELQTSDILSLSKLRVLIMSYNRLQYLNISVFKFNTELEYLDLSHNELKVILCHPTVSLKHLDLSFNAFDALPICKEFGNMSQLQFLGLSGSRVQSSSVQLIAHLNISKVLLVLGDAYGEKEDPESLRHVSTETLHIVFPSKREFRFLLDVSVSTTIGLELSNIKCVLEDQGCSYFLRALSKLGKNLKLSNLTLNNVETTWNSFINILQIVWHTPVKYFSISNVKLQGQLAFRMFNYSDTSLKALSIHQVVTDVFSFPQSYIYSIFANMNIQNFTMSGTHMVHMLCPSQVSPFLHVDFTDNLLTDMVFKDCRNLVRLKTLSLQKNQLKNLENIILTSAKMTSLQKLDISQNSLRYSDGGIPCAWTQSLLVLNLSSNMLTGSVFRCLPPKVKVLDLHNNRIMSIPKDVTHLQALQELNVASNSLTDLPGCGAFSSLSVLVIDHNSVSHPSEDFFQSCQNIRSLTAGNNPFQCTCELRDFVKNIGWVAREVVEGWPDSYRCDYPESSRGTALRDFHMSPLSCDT

recombinant human TLR1 = molecular target: T2, recombinant human TLR1 (human, UniProt Q15399 25-580)
T2 sequence (looked up): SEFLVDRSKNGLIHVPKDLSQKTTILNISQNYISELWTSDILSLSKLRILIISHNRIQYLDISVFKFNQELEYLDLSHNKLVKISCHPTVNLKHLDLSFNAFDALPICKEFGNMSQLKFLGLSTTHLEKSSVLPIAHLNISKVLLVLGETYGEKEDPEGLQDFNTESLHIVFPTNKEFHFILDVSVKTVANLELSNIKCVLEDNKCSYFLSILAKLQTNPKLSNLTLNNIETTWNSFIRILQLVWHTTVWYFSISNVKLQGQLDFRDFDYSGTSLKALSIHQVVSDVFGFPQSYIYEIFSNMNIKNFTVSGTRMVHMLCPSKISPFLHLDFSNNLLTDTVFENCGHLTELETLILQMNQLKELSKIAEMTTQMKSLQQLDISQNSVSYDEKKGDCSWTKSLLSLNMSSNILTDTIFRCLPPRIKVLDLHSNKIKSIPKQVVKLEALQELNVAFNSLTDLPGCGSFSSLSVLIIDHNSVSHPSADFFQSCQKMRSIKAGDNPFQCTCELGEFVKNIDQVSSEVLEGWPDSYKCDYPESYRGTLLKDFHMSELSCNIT

recombinant mouse TLR2 = molecular target: T3, recombinant mouse TLR2 (mouse, UniProt Q9QUN7 25-587)
T3 sequence (looked up): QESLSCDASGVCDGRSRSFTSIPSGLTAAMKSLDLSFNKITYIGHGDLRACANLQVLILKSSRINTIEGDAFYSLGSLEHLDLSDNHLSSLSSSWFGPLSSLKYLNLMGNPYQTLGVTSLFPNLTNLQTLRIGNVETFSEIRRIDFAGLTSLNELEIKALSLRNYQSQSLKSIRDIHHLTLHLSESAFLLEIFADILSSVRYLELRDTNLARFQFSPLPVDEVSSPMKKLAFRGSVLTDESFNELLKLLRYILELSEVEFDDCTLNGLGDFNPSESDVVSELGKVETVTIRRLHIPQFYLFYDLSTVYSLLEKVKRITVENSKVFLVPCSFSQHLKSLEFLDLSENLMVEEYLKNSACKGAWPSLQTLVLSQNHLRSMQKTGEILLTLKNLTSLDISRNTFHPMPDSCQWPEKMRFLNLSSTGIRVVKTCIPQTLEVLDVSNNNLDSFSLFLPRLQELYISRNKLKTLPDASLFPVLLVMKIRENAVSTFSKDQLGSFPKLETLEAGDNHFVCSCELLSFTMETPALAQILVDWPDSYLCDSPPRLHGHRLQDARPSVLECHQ

recombinant human TLR2 = recombinant human TLR2 (human, UniProt O60603 21-588)

Measured: binding result

Sequence of recombinant human TLR2 (O60603 21-588): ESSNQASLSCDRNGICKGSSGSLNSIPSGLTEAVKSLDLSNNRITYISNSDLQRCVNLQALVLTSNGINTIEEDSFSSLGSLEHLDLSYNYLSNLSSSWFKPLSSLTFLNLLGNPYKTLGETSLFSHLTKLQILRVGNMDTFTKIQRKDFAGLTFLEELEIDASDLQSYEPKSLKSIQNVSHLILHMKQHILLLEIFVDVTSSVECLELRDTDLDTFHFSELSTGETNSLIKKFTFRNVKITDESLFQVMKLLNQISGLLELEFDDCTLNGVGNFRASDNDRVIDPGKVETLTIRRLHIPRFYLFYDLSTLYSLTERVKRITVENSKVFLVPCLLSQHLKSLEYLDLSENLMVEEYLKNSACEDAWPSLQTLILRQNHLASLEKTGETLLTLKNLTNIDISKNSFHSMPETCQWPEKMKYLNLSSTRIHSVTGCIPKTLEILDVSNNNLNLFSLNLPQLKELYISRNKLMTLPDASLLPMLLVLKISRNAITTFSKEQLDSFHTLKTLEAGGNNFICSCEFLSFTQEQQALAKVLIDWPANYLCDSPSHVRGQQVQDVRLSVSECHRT

B1: LT-IIb-B5, pentameric B subunit of type IIb E. coli enterotoxin (wild-type) (natural protein)
chain: GASQFFKDNCNRTTASLVEGVELTKYISDINNNTDGMYVVSSTGGVWRISRAKDYPDNVMTAEMRKIAMAAVLSGMRVNMCASPASSPNVIWAIELEAE
binds: recombinant mouse TLR1 | recombinant human TLR1 | recombinant mouse TLR2 | recombinant human TLR2
